Reference: patent US20240384250A1 (UAB RESEARCH FOUNDATION, published 2024)
One block for each binder: values may come before it.

What was measured:
[1] = biological target: T1, recombinant FGF23 protein (species not stated for the assay); assay: plate assay: 100 ng FGF23 coated, 400 ng purified FLAG-tagged sKL-N694Q or wildtype, anti-FLAG-HRP (FIG. 25E)
T1 construct: also called fibroblast growth factor 23
T1 sequence (Q9GZV9 25-251, species assumed, looked up): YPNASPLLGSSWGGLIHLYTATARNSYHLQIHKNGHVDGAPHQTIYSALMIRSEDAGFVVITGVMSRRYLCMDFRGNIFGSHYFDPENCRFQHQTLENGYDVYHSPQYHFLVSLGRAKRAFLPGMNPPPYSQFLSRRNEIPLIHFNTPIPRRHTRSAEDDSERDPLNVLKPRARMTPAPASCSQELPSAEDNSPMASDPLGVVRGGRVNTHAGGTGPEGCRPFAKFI
Protocol: Plates were coated with 100 ng of FGF23 or 200 ng of FGFR1c and incubated with 400 ng of purified FLAG-tagged wildtype sKL or sKL-N694Q.

[2] = biological target: T2, Fc-tagged human FGFR4 ectodomain (human, UniProt P22455 22-369); assay: pull-down: Fc-FGFR on protein A/G beads, then FGF21 with PBS, FLAG-sKL or heparin; Western blot with anti-FGF21
T2 construct: extracellular domain; Bought; also called Fc-FGFR4; not shown: Fc tag
T2 sequence (looked up): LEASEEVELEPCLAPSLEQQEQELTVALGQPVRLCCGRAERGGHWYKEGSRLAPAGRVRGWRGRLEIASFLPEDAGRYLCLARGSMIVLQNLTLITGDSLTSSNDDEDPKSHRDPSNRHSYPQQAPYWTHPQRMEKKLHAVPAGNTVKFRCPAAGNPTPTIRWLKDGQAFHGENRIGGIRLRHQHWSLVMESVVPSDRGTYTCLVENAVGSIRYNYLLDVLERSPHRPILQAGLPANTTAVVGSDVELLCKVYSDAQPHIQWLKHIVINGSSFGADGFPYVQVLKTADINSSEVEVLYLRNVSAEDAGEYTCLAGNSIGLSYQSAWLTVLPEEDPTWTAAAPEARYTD
Protocol: To study the interaction between Fc-tagged FGFR isoforms (Fc-FGFR), FGF isoforms, and sKL, immunoprecipitation studies were conducted. Protein A beads (6501, BioVision) and protein G beads (6511, BioVision) were used at 25 μl of a 50% stock slurry per sample in a total bead volume of 50 μl. Beads were washed 5× in activity buffer (50 mM Tris [pH 7.4], 200 mM NaCl, 0.01% Tween 20). Bead spin-down assays were all performed for 2 minutes at 5000 g. Beads were resuspended in 1 ml of activity buffer in a 1.5-ml snap cap tube. One microgram of Fc-FGFR1 to 4 was incubated with the beads for 1 hour on a bead rotator. Control samples were incubated with 2 μg of anti-FGF antibody instead of Fc-FGFR. Beads were then pelleted at 5000 g for 2 minutes and washed 5× with activity buffer. Beads were resuspended and incubated with different combinations of 500 ng of FGF, 1 μg of sKL, 1.6 United States Pharmacopeia (USP) units of heparin, or phosphate-buffered saline (PBS). Beads were incubated for 1 hour on a tube rotator, and beads were pelleted and washed as before. One hundred microliters of 1× Laemmli sample buffer (1610737, Bio-Rad) with 1.42 M 2-mercaptoethanol was added, and samples were boiled for 5 minutes. Samples were analyzed using SDS-PAGE and Western blotting.

fold increase in FGF23 binding against the wildtype protein [1]: 3 fold
B1: FLAG-tagged sKL-N694Q (receptor)
chain: EPGDGAQTWARFSRPPAPEAAGLFQGTFPDGFLWAVGSAAYQTEGGWQQHGKGASIWDTFTHHPLAPPGDSRNASLPLGAPSPLQPATGDVASDSYNNVFRDTEALRELGVTHYRFSISWARVLPNGSAGVPNREGLRYYRRLLERLRELGVQPVVTLYHWDLPQRLQDAYGGWANRALADHFRDYAELCFRHFGGQVKYWITIDNPYVVAWHGYATGRLAPGIRGSPRLGYLVAHNLLLAHAKVWHLYNTSFRPTQGGQVSIALSSHWINPRRMTDHSIKECQKSLDFVLGWFAKPVFIDGDYPESMKNNLSSILPDFTESEKKFIKGTADFFALCFGPTLSFQLLDPHMKFRQLESPNLRQLLSWIDLEFNHPQIFIVENGWFVSGTTKRDDAKYMYYLKKFIMETLKAIKLDGVDVIGYTAWSLMDGFEWHRGYSIRRGLFYVDFLSQDKMLLPKSSALFYQKLIEKNGFPPLPENQPLEGTFPCDFAWGVVDNYIQVDTTLSQFTDLNVYLWDVHHSKRLIKVDGVVTKKRKSYCVDFAAIQPQIALLQEMHVTHFRFSLDWALILPLGNQSQVNHTILQYYRCMASELVRVNITPVVALWQPMAPNQGLPRLLARQGAWENPYTALAFAEYARLCFQELGHHVKLWITMNEPYTRQMTYSAGHNLLKAHALAWHVYNEKFRHAQNGKISIALQADWIEPACPFSQKDKEVAERVLEFDIGWLAEPIFGSGDYPWVMRDWLNQRNNFLLPYFTEDEKKLIQGTFDFLALSHYTTILVDSEKEDPIKYNDYLEVQEMTDITWLNSPSQVAVVPWGLRKVLNWLKFKYGDLPMYIISNGIDDGLHAEDDQLRVYYMQNYINEALKAHILDGINLCGYFAYSFNDRTAPRFGLYRYAADQFEPKASMKHYRKIIDSNGFPGPETLERFCPEEFTVCTECSFFHTRKS
notes: Human assignment as for m24; Tested in HEK293 media and as protein purified from supernatants; also called N6940 and sKL-N6940; not shown: C-terminal FLAG/His tag

B2: human FGF21 (ligand, UniProt Q9NSA1 29-209, looked up)
chain: HPIPDSSPLLQFGGQVRQRYLYTDDAQQTEAHLEIREDGTVGGAADQSPESLLQLKALKPGVIQILGVKTSRFLCQRPDGALYGSLHFDPEACSFRELLLEDGYNVYQSEAHGLPLHLPGNKSPHRDPAPRGPARFLPLPGLPPALPEPPGILAPQPPDVGSSDPLSMVGPSQGRSPSYAS
binding result [2]: no binding (tested: 500 ng FGF21 (Methods paragraph 182))
